B1: GNG4, P50150 (peptide)
chain: REKKFFCTIL
B2: ADGRG1, Q9Y653 (peptide)
chain: SSGSTSSSRI
B3: GOLT1A, Q6ZVE7 (peptide)
chain: RRLQGTSSMV
B4: ADGRA1, Q86SQ6 (peptide)
chain: TGPWKNETTV
B5: PLCB1, Q9NQ66 (peptide)
chain: IPGKEFDTPL
B6: IGF1R, P08069 (peptide)
chain: ALPLPQSSTC
B7: CTBP1, Q13363 (peptide)
chain: ADRDHASDQL
B8: PLEKHG7, Q6ZR37 (peptide)
chain: FTLPAESSEI
B9: RRBP1, Q9P2E9 (peptide)
chain: GSSSKEGTSV
B10: EZH1, Q92800 (peptide)
chain: VGIERETDVL
B11: ADGRA2, Q96PE1 (peptide)
chain: TGLWKSETTV
B12: CLDN9, O95484 (peptide)
chain: ASGLDKRDYV
B13: DUSP10, Q9Y6W6 (peptide)
chain: PKLMGVETVV
B14: GAGE12J, A6NER3 (peptide)
chain: PEEGKKQSQC
B15: RSBN1, Q5VWQ0 (peptide)
chain: NLQEHSTTSV
B16: GAB3, Q8WWW8 (peptide)
chain: EWTDERQSKV
B17: SEMA4C, Q9C0C4 (peptide)
chain: PDSNPEESSV
B18: APPL1, Q9UKG1 (peptide)
chain: EGGKKRESEA
B19: KCNT1, Q5JUK3 (peptide)
chain: NPETRDETQL
B20: ITK, Q08881 (peptide)
chain: QLAEIAESGL
B21: EPHB6, O15197 (peptide)
chain: HLRQQGSVEV
B22: TNRC6A, Q8NDV7 (peptide)
chain: DHLGGGGESM

The record followed here is PMC9482650, “Quantitative fragmentomics allow affinity mapping of interactomes” (Nature Communications, 2022).

TJP2_1, Q9UDY2, sequence (Q9UDY2 24-128): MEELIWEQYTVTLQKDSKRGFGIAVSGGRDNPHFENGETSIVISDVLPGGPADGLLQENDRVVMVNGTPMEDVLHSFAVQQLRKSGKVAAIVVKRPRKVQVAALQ

One assay deals with NHERF4_4, Q86UT5. Put plainly: holdup assay. The arrangement: key: below the threshold = too weak to quantify, mostly under pKd 3.1 to 4. Conditions: plain residues with an end cap or a label only (N-terminal biotin on a linker: ado-ado).
NHERF4_4, Q86UT5, sequence (Q86UT5 464-550): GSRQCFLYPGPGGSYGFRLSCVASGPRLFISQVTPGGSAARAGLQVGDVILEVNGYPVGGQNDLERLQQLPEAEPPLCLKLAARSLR
By pKd is commonly meant the negative decadic logarithm of the Kd, by convention in mol/L. Take B1: the pKd was found to be 3.76.

For the molecule B2, the pKd result is recorded as “below the threshold”.

B3: the pKd entry is reported as “below the threshold”.

B4 had a pKd of 3.9.

As to B5, the pKd entry was “below the threshold”.

For the molecule B6, the pKd entry is given as “below the threshold”.

For B7, the pKd result was “below the threshold”.

In the case of B8, the pKd result is “below the threshold”.

As to B9, the pKd stood at 3.98.

For B10, the pKd result was “below the threshold”.

For B11, the pKd entry is reported as “below the threshold”.

Consider B12, for which the pKd result is listed as “below the threshold”.

As to B13, the pKd result was “below the threshold”.

Take B14: the pKd entry is “below the threshold”.

With B15, the pKd entry is given as “below the threshold”.

Turning to B16, the pKd entry is “below the threshold”.

For the molecule B17, the pKd result is recorded as “below the threshold”.

B18: the pKd entry was “below the threshold”.

B19 returned a pKd of 3.99.

For the molecule B20, the pKd entry was “below the threshold”.

As for B21, the pKd entry is “below the threshold”.

As to B22, the pKd result was “below the threshold”.

A further assay has as its target TJP2_1, Q9UDY2. Put plainly: holdup assay. Further details: key: below the threshold = too weak to quantify, mostly under pKd 3.1 to 4. Conditions: plain residues with an end cap or a label only (N-terminal biotin on a linker: ado-ado).
As for B1, the pKd was 4.93.

On to B2, for which the pKd entry is reported as “below the threshold”.

Turning to B3, the pKd worked out at 3.59.

Consider B4, for which the pKd result is on record as “below the threshold”.

With B5, the pKd result was “below the threshold”.

In the case of B6, the pKd entry is reported as “below the threshold”.

As for B7, the pKd entry is recorded as “below the threshold”.

For the molecule B8, the pKd result was “below the threshold”.

Take B9: the pKd result is on record as “below the threshold”.

Consider B10, for which the pKd entry was “below the threshold”.

For the molecule B11, the pKd result is “below the threshold”.

In the case of B12, the negative-log Kd (pKd) result was “below the threshold”.

In the case of B13, the pKd entry is reported as “below the threshold”.

Take B14: the pKd result was “below the threshold”.

As for B15, the pKd entry was “below the threshold”.

For the molecule B16, the pKd entry was “below the threshold”.

Regarding B17, the pKd result is recorded as “below the threshold”.

In the case of B18, the pKd entry is given as “below the threshold”.

On to B19, for which the pKd entry is on record as “below the threshold”.

Take B20: the pKd entry is “below the threshold”.

As for B21, the pKd result is reported as “below the threshold”.

Turning to B22, the pKd result is on record as “below the threshold”.

The target in the next assay is GRIP2_7, Q9C0E4. Put plainly: holdup assay. The arrangement: key: below the threshold = too weak to quantify, mostly under pKd 3.1 to 4. Conditions: plain residues with an end cap or a label only (N-terminal biotin on a linker: ado-ado).
GRIP2_7, Q9C0E4, sequence (Q9C0E4 934-1023): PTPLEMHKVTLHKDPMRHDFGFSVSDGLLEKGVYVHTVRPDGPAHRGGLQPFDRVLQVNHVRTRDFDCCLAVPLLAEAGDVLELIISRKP
B1: the pKd entry was “below the threshold”.

Turning to B2, the pKd entry is listed as “below the threshold”.

Take B3: the pKd entry is on record as “below the threshold”.

Turning to B4, the pKd entry is recorded as “below the threshold”.

For the molecule B5, the pKd result is given as “below the threshold”.

For B6, the pKd entry is given as “below the threshold”.

For B7, the pKd entry is given as “below the threshold”.

For B8, the pKd result is listed as “below the threshold”.

On to B9, for which the pKd result is “below the threshold”.

Turning to B10, the pKd entry was “below the threshold”.

With B11, the pKd result is on record as “below the threshold”.

For B12, the negative-log Kd (pKd) entry is listed as “below the threshold”.

B13: the pKd result was “below the threshold”.

On to B14, for which the pKd result is on record as “below the threshold”.

Consider B15, for which the pKd result is recorded as “below the threshold”.

Consider B16, for which the negative logarithm of the Kd (pKd) entry was “below the threshold”.

Regarding B17, the pKd entry is “below the threshold”.

B18: the pKd entry was “below the threshold”.

B19: the pKd entry is on record as “below the threshold”.

Take B20: the pKd was determined as 3.47.

Regarding B21, the pKd result was “below the threshold”.

Consider B22, for which the pKd result is given as “below the threshold”.
